From the nanobody polyreactivity screen of Harvey et al. (2022)

Test: yeast display, Sf9 membrane polyspecificity reagent, FACS + sequencing; frameworks hold sequencing errors
In short: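 Polyreactivity labels are assigned by the sorting gate from which each nanobody was recovered. The gates were low and high (top ~1%), set on anti-HA fluorescence for expression and streptavidin fluorescence for reagent binding. Before sorting, galactose-induced (36–48 hours) yeast display cells were stained for 1 hour at 4 °C with 10% biotinylated, detergent-solubilized Sf9 membrane reagent.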

Row | Sequence | polyreactivity (PSR sort gate)
1 | QVQLVESGGGLVQAGGSLRLSCAASGRTFKYNAMGWSRPAPGKERELVAAISWSGGRTYYADSVKGRFTISRDNAKNTVYLQMNSLKPEDTAVYYCAAGVFKKYRPSGRYYYWGHGTQVTVSS | high polyreactivity
2 | QVQLVESGGGLVQEGGSLRLSCAASGFIFGWYAMGWYRQAPGKERELVATISSSGGSTYYADSVKGRFTISRDNAKNTVYLQMNSLKPEDTAVYYCAARPRRYYSAQDMDYWGQGTQVTVSS | high polyreactivity
3 | QVQLVESGGGLVQAGGSLRLSCAASGIIFITYAMGWYRQAPGKERELVAVISKGGGRTYYADSVKGRFTISRDNAKNTVYLQMNSLKPEDTAVYYCAARSSSNRYVHMDYWGQGTQVTVSS | high polyreactivity
4 | QVQLVESGGGLVQAGGTLRLSCAPSGHIVFYYTKGWYRQAPGKERELVAGITIGGSTNYADSVKGRFTISRDNAKNTVYLQMNSLKPEDTAVYYCNVVKYVYIYSYWEYYYWGQGTQVTGSS | low polyreactivity
5 | QVQLVESGGGLVQAGGSLRLSCAASGYIFGVYAMGWYRQAPGKERELVAVITVTGGSTYYADSVKGRFTISRDNAKNTVYLQMNSLKPEDTAVYYCAARGYGNLARVYHGYGYWGQGTQVTVSS | high polyreactivity
6 | QVQLVESGGGLVQAGGSLRLSCAASGRTFYVYDMGWYREAPGKVRELVAFISSSGSTNYADSVKGRFTISRDNAKYTVYLQMNSLKPEDTAGYYCNKRLIYYRGTYYSRRFDYWGQGTQVTVSS | high polyreactivity
7 | QVQLVESGGGLVQAGGSLRLSCAASGRISLSNAMGWYKQAPGKEREFVAAITKRSDRTYYADSVKGRFTISRDNAKNTVYLQMNSLKPEDTAVYYCAAKPLFGTRDDYWGQGTQVTVSS | low polyreactivity
8 | KVQLVESGGGLVQAGGSLRLSCAASGIIFGRYAMGWYRQAPGKERELVATISRSGGTTYYADSVKGRFTISRDNAKNTVYLQMNSLKPEDTAVYYCAARWTSRYDYWGQGTQVTVSS | high polyreactivity
9 | QVQLVESGGGLVQAGGSLRLSCAASGFIFLYYAMGWYRQAPGKERELVADSSRGADTKYADSVKGRFTISRDNAKNNVYLQMNSLKPVDTAVYYCAARTGWPRVGFQFPAHVGFDYWGQGTQVTVSS | low polyreactivity
10 | QVQLVESGGGLVQAGGSLRLSCAASGSIFERYDMGWYRQAPGKERELVAAITSAGITYYADSVKGRFTISRDNAKNTVYLQMNSLKPEDTAVYYCAASYYYGYDYWGQGTQVTVSS | low polyreactivity
11 | QVQHVESAGGLVQAGGSLRLSCAASGRTFSRYAMGWYRQAPGKERELVATITRGGSTNYADSVKGRFTISRDNAKNRVYLQMNSQKPEDTSVYYFIAGCFRYQGTLNHFYYWGQGTQVTVSS | low polyreactivity
12 | QVQLVESGGGLVQAGGSLRLSCAASGRTFYNYAMGWYRQAPGKERELVAAITRGGSTYYADSVKGRFTISRDNAKNTVYLQMNSLKPEDTAVYYCNAVFPYEHEEYDYWGQGTQVTVSS | high polyreactivity
13 | QVQLVESGGGLVQAGGSLRLSCAASGFIFRRYAMGWYRQAPGKERELVAAISRTGSTNYADSVKGRFTISRDNAKNTVYLKMNSLKPDDTAVYYCNARYITFNGYGYGYWGQGTQVTVSS | high polyreactivity
14 | QVQLVESGGGLVQAGGSLLLSCSASVLIFYDNDMGWYRQAPGKERVFVAAITSLGGSTYYADSVKGRFTISRDNAKNTVYLQMNSLKPEDTAVYYCNVKSKYYSPNYDYWGQVTQVTVSS | low polyreactivity
15 | QVQLVESGGGLVQAGGSLRLSCAASGRIIDIYAMGWYRQAPGKERELVAAITSGGSTYYADSVKGRFTISRDNAKNTVYLQMNSLKPEDTAVYYCAARLFADYWGQGTQVTVSS | low polyreactivity
16 | QVQLVESGGGLVQAGGSLRLSCAASGFTFAGYAMGWYRQAPGKERELVAVITSSDSTYYADSVKGLFTISRDNAKNTDYLQMNSLKPEDTAVYYSAVRSYVNWWSIVKYDYWGQGTQVTVSS | low polyreactivity
17 | QVQLVESGGGLVQAGGSLRLSCAASGSTFAPNAMGWYRQAPGKERELVAAISSGSSTYYADSVKGRFTISRDNAKNTVYLQMNSLKQEVNAVYYCAARSTYYSRKQLVDYWGQGTQVTVSS | high polyreactivity
18 | QVQLVESGGGLVQAGGSLRLSCAASGSTFSWYAMGWYRQAPGKERELVASISFSGGDTSYADSVKGRFTISRDNAKNTVYLQMHSLKPEDSAVYYCGKEYKYETDTKFDYWGQGTQVTVSS | low polyreactivity
19 | QVQLVESGGGLVQAGGSLRLSCAASGSTFVYYAMGWYRQAPGKERELVAAITSRGGSTYYADSVKGRFTISRDNAKNTVYLQMNSLKPEDTAVYYCAKYAYSFPYNYWGQGTQVTVSS | high polyreactivity
20 | QVQLVESGGGLVQAGGSLRLSCAASGFTFSWYAMGWYRQAPGKERELVAAISLSGDRTYYADSVKGRFTISRDNAKNSVYLQMNSLKPDDTAVYYCVFAFEYFYWGQGTQVTVSS | low polyreactivity
21 | QVQHVESLGGLVQAGGSLRLSCAASGRTFFGYAMGWYRQEPGKERELVAAISSGGRTYFADSVKGRFTMSRDNAKNTVFLQMNSLKPEDTAVYYCAAQYSARYYYWGLGTQVTVSS | high polyreactivity
